Reference: US20230312724A1 (KADMON, published 2023)

T1: hB7-H4 (soluble human B7-H4, construct not named) (human, UniProt Q7Z7D3 25-259, limits assumed)
T1 construct: also called soluble hB7-H4
T1 sequence: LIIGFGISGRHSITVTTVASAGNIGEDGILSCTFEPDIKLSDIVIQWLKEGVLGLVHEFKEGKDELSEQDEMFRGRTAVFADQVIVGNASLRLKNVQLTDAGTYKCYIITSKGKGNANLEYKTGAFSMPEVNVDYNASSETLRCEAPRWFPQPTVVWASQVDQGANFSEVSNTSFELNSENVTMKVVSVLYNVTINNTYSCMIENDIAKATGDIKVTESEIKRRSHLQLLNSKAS

T2: mB7-H4 (soluble mouse B7-H4, construct not named) (mouse, UniProt Q7TSP5 25-257, limits assumed)
T2 sequence: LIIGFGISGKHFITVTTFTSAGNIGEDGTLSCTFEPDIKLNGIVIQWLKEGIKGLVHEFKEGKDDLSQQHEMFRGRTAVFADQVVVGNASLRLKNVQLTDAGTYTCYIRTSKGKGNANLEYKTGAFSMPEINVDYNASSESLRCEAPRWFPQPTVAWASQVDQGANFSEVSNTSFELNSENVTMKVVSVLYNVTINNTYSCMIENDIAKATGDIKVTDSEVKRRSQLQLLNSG

T3: human B7-H4 expressed on cells (human, UniProt Q7Z7D3 25-282)
T3 construct: Transfected CHO cells or tumor cell lines that carry hB7-H4; also called cellular hB7-H4
T3 sequence: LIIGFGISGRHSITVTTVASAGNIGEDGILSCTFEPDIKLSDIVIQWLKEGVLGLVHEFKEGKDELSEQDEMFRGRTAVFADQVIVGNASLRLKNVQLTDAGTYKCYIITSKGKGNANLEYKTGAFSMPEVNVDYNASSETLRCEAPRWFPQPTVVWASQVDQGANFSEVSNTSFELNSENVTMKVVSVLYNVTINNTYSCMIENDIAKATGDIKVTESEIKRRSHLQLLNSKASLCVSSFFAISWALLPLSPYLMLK

T4: mouse B7-H4 expressed on cells (mouse, UniProt Q7TSP5 25-257)
T4 construct: also called cellular mB7-H4; mB7-H4/CT26
T4 sequence: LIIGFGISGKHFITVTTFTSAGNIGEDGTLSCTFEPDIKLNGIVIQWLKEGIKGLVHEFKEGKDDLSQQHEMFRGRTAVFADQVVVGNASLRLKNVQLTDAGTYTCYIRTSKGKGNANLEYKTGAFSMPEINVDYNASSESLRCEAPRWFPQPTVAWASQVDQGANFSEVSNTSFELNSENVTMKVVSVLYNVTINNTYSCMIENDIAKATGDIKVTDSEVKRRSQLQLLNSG

T5: human B7-H4-his (human, UniProt Q7Z7D3 25-259)
T5 construct: also called hB7-H4-his; hB7-H4 his; not shown: his tag
T5 sequence: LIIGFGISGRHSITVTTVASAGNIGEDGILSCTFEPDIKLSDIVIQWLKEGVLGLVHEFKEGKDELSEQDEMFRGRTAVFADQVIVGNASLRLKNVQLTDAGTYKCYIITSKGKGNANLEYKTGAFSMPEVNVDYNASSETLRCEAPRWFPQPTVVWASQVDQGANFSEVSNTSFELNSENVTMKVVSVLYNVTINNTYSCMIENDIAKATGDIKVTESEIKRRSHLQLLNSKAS

T6: mouse B7-H4-his (mouse, UniProt Q7TSP5 25-257)
T6 construct: also called mB7-H4-his; mB7-H4-His; not shown: his tag
T6 sequence: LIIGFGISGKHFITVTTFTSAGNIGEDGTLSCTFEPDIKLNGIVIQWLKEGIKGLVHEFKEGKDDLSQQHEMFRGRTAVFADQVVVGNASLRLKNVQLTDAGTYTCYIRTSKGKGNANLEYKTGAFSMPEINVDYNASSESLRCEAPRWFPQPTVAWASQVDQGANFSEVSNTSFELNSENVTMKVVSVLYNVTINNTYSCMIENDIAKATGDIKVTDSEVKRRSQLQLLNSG

B1: 39A11/39A11 (antibody, human IgG1, V domains shown)
VH: EVQLLESGGGLVQPGGSLRLSCAASGFTFSSYGMHWVRQAPGKGLEWVASISSSSGYIYYADSVKGRFTISRDNSKNTLYLQMNSLRAEDTAVYYCARASSGMDVWGQGTTVTVSS
VL: DIQMTQSPSSLSASVGDRVTITCRASQTIRSYLNWYQQKPGKAPKLLIYAASHLQSGVPSRFSGSGSGTDFTLTISSLQPEDFATYYCQQSYTTPYTFGQGTKLEIK
B2: 4B9/4B9 (antibody, human IgG1, V domains shown)
VH: QVQLVQSGAEVKKPGASVKVSCKASGYTFTSYYMHWVRQAPGQGLEWMGWMNPNSGNTGYAQKFQGRVTMTRDTSTSTVYMELSSLRSEDTAVYYCARGQGRYLNYYYMDVWGKGTTVTVSS
VL: DIQMTQSPSSLSASVGDRVTITCRVSQGISNYLAWYQQKPGKAPKLLIYDASSLQSGVPSRFSGSGSGTDFTLTISSLQPEDFATYYCQQSYSTPFTFGPGTKVDIK

Legend:
human B7-H4-Fc [1] = target: T7, human B7-H4-Fc (human); test: SPR (Biacore)
T7 construct: also called hB7-H4-Fc; hB7-H4 Fc

mouse B7-H4-Fc [2] = target: T8, mouse B7-H4-Fc (mouse; human); test: SPR (Biacore)
T8 construct: also called mB7-H4-Fc; mB7-H4-hFc

[3] = target: T1, hB7-H4 (soluble human B7-H4, construct …); test: ELISA, hB7-H4
Summary of the method: (§1)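 ~1-2 μg/ml antigen coated o/n 4° C; 3% milk block; Ab serial dil., RT 1-1.5 h; PBS-T wash; HRP-anti-hFab; TMB/1N H₂SO₄; A450. EC50 from OD vs. conc.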

[4] = target: T1, hB7-H4 (soluble human B7-H4, construct …); test: SPR (Biacore)
Summary of the method: (§2)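 Kinetic constants came from a 1:1 Langmuir fit of binding at 25 °C in HBS-EP, pH 7.4. Analyte (100 nM to 0.1 nM) flowed for 180 s, then dissociated for 1000 or 1200 s, over amine-coupled human B7-H4-Fc, human B7-H4-his or mouse B7-H4-Fc surfaces at 50-100 RU.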

[5] = target: T2, mB7-H4 (soluble mouse B7-H4, construct …); test: SPR (Biacore)
Summary of the method: as §2

[6] = target: T2, mB7-H4 (soluble mouse B7-H4, construct …); test: ELISA, mB7-H4
Method: (§3) About 1-2 μg/ml of human or mouse B7-H4-Fc (or his-tagged) was immobilized on ELISA plates (Immuno 2HB, Thermo scientific, cat #3455) at 4° C. overnight. After blocking the plates with 3% PBS+milk, serial diluted antibodies were added to the blocked plates and incubated at RT for 1-1.5 h. After washing the plates with PBS-T (0.05%), horse radish peroxidase (HRP)-conjugated antibody targeting the hFab was added to the plate. Signals were developed by adding 3,3′,5,5′-Tetramethylbenzidine (TMB (followed 1N of H₂SO₄ to stop the reaction. The OD at 450 nm was read by ELISA plate reader (Infinite M1000 from TECAN). GraphPad from Prism was used to plot OD450 vs. antibody concentration curve and to calculate the EC50 values.

[7] = target: T3, human B7-H4 expressed on cells; test: flow cytometry, SK-BR-3 cells
Summary of the method: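 Binding read on a Guava flow cytometer after two-step staining at 4 °C: serial dilutions of antibody or fusion protein for 1 h, then 1:200 secondary antibody for 30 min in the dark. Cells suspended at 1×10⁶ cells/ml in cold FACS buffer, washed three times between steps.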

[8] = target: T4, mouse B7-H4 expressed on cells; test: flow cytometry, mB7-H4/CT26 cells
Method: Cells were harvested, washed once, and then re-suspended to the concentration of 1×10⁶ cells/ml in ice cold FACS Buffer. 25 μl of cell suspension was added to each well of a 96-well round-bottom microliter plate. Serially diluted antibodies or fusion proteins were added to each well and incubated for 1 hour at 4° C. Cells were washed three times by centrifugation at 1500 rpm for 5 minutes, and then stained with secondary antibody (1:200 dilution) for 30 min at 4° C. in the dark. Cells were washed once, re-suspended in 100 μl PBS buffer and then analyzed using Guava Flow Cytometry EasyCyte system.

[9] = target: T9, IgC domain of human B7-H4-Fc (human); test: ELISA, coated hB7-H4 IgC domain
T9 construct: also called hB7-H4 IgC domain
Method: as §3

[10] = target: T10, IgC domain of mouse B7-H4-Fc (mouse; human); test: ELISA, coated mB7-H4 IgC domain
T10 construct: also called mB7-H4 IgC domain
Method: as §3

[11] = target: T11, IgV domain of human B7-H4-Fc (human); test: ELISA, coated hB7-H4 IgV domain
T11 construct: also called hB7-H4 IgV domain

[12] = target: T12, IgV domain of mouse B7-H4-Fc (mouse; human); test: ELISA, coated mB7-H4 IgV domain
T12 construct: also called mB7-H4 IgV domain

human B7-H4-his = target: T5, human B7-H4-his; test: SPR (Biacore)
mouse B7-H4-his = target: T6, mouse B7-H4-his; test: SPR (Biacore)
human B7-H4-Fc [13] = target: T7, human B7-H4-Fc; test: ELISA, coated hB7-H4-Fc
Method: as §3

mouse B7-H4-Fc [14] = target: T8, mouse B7-H4-Fc; test: ELISA, coated mB7-H4-Fc
Summary of the method: as §1

[15] = target: T2, mB7-H4 (soluble mouse B7-H4, construct …); test: summary of ELISA and flow cytometry
[16] = target: T11, IgV domain of human B7-H4-Fc; test: ELISA, coated hB7-H4 IgV domain; remark: listed apart in the source
Method: as §3

[17] = target: T12, IgV domain of mouse B7-H4-Fc; test: ELISA, coated mB7-H4 IgV domain; remark: listed apart in the source
Summary of the method: as §1

[18] = target: T4, mouse B7-H4 expressed on cells; test: flow cytometry, CHO cells expressing mB7-H4

T7 sequence (chain, as listed by the source): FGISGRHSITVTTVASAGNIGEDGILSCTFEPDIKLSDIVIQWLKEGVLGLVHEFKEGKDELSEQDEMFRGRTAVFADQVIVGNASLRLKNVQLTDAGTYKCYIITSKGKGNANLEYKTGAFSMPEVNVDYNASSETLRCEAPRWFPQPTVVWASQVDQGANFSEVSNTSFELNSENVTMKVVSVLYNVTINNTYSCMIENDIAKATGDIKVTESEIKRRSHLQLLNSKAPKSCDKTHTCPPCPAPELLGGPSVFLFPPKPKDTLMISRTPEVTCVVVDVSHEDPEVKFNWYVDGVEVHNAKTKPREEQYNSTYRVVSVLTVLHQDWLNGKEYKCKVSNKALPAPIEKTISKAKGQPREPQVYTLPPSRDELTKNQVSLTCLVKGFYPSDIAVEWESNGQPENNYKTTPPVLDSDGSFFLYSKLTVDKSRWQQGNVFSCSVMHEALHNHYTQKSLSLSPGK
T8 sequence (chain, as listed by the source): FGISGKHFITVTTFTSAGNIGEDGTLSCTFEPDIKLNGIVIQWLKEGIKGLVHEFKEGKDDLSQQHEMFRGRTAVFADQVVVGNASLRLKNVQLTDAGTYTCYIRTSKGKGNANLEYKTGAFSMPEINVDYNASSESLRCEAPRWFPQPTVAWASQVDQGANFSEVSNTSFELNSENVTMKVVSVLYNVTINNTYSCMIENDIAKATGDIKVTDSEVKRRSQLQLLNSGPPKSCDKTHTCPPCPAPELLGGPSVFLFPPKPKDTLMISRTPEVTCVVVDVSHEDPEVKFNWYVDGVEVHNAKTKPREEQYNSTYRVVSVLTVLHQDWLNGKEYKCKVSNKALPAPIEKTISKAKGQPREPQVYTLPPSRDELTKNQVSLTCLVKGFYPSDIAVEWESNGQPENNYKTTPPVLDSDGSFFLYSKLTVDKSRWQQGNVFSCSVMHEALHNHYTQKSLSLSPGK
T12 sequence (chain, as listed by the source): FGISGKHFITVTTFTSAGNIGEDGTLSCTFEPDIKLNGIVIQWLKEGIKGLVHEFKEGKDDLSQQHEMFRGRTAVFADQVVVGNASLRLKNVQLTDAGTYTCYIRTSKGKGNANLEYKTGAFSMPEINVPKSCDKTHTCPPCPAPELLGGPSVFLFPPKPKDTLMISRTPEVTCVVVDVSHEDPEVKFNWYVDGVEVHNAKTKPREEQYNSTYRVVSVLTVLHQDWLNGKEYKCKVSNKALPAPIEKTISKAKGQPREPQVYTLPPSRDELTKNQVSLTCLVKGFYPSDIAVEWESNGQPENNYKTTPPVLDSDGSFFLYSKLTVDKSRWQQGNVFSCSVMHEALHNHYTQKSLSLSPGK
T11 sequence (chain, as listed by the source): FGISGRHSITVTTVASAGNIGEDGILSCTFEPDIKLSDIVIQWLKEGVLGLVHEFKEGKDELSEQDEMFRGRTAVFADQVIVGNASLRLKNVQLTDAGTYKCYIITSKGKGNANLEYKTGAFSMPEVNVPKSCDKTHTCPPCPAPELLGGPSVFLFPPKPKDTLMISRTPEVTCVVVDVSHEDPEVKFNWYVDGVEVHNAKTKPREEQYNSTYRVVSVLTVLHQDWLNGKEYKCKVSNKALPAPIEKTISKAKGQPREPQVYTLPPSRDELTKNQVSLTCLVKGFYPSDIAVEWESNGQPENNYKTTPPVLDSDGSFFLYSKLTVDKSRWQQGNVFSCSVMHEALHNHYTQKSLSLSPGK
T10 sequence (chain, as listed by the source): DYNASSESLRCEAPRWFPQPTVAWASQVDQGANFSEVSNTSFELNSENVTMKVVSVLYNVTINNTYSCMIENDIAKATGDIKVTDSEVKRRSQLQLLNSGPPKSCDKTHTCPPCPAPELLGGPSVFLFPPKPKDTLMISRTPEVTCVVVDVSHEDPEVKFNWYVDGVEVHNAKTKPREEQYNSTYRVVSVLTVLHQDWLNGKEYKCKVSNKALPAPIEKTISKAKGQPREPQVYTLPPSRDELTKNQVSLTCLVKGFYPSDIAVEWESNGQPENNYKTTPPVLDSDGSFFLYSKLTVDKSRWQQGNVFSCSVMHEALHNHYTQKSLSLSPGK
T9 sequence (chain, as listed by the source): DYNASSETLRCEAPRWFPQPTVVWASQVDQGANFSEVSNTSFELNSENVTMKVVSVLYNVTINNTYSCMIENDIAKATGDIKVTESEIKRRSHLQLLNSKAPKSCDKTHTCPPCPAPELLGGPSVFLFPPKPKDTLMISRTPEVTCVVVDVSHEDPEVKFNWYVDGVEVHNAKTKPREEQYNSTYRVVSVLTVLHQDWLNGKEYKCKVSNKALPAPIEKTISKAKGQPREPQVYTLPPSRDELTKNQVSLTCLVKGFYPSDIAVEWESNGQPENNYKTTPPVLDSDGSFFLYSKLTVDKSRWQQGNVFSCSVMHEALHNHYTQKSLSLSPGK

Binder | Kd (human B7-H4-Fc [1]) [nM] | Kd (mouse B7-H4-Fc [2]) [nM] | EC50 [3] [nM] | Kd [4] [nM] | Kd [5] [nM] | EC50 [6] [nM] | EC50 [7] [nM] | EC50 [8] [nM] | binding result [9] | binding result [10] | EC50 (read off the curve) [11] [nM] | EC50 (read off the curve) [12] [nM] | Kd (human B7-H4-his) [nM] | binding result (mouse B7-H4-his) | EC50 (read off the curve) (human B7-H4-Fc [13]) [nM] | binding result (mouse B7-H4-Fc [14]) | binding result [15] | binding result [16] | binding result [17] | binding result [18]
B1 | 0.926 | 1.53 | 0.08 | 1.05 | 13 | 0.136 | 4.17 | 6.73 | no binding (tested: axis value -8 (labelled log nM)) | no binding (tested: axis value -8 (labelled log nM)) | ~0.3 | ~0.2 |  |  |  |  |  |  |  | 
B2 | 2.89 |  |  |  |  |  |  |  |  |  |  |  | 4.13 | no binding | ~0.07 | no binding (tested: 20 nM) | no binding | no binding (tested: 20 nM) | no binding (tested: 20 nM) | no binding
